Experimental data published in patent US20240084003A1 (SIMCERE ZAIMING PHARMACEUTICAL, published 2024).
Residue numbers refer to the chain shown, from its start.

T1: human CD22-ECD-His protein (human, UniProt P20273 20-687)
T1 construct: Recombinant, from HEK293E cells; also called hCD22-ECD-His; human CD22-His protein; not shown: His tag
T1 sequence: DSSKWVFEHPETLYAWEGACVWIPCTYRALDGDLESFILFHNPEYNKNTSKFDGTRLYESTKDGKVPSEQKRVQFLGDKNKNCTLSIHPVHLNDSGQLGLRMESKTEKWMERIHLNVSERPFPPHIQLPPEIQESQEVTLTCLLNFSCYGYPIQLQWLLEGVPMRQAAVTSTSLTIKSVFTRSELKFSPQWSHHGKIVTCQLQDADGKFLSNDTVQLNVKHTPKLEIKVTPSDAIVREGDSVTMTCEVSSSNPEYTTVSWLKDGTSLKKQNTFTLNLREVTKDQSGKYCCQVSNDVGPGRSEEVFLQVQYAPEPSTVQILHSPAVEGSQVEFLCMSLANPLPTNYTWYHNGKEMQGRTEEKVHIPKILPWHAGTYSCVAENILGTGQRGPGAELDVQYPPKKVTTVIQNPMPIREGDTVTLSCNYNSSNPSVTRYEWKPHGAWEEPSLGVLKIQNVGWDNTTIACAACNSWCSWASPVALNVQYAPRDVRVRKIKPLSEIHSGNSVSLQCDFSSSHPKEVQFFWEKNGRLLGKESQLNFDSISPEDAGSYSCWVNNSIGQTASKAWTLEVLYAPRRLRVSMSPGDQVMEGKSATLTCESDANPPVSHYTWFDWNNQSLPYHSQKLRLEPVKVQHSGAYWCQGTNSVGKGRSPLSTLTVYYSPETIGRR

T2: human CD22 domain5-7-His (human, UniProt P20273 414-687)
T2 construct: also called hCD22 domain5-7-His; not shown: His tag
T2 sequence: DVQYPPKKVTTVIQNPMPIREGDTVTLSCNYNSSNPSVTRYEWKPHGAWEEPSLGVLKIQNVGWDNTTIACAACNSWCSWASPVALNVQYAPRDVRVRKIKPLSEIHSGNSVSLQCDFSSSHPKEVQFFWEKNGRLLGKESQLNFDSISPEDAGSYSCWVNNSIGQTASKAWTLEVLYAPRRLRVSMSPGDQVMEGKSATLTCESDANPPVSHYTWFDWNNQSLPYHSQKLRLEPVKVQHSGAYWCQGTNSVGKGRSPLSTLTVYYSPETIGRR

T3: rhesus monkey CD22-ECD-His protein (rhesus monkey, UniProt H9G1X2 18-686)
T3 construct: extracellular domain; also called monkey CD22 protein
T3 sequence: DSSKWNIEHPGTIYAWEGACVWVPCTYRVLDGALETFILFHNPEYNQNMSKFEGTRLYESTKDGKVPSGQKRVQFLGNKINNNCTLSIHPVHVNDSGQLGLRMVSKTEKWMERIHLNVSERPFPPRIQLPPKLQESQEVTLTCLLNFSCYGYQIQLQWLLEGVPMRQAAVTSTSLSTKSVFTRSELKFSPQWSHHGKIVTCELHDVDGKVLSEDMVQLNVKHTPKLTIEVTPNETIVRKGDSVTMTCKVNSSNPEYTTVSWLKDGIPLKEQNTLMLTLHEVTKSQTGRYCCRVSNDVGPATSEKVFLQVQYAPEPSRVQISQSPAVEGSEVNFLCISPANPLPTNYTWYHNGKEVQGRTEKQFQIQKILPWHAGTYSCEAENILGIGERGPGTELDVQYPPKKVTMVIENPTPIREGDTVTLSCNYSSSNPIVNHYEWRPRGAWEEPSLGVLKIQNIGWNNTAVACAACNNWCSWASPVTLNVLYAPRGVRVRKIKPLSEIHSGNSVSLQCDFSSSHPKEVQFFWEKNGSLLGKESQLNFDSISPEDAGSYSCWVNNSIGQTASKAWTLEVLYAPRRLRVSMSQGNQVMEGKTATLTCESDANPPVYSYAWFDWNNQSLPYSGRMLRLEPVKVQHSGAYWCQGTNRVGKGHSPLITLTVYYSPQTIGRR

B1: F1.250.16 (antibody, human IgG1, kappa, V domains shown)
VH: QVQLQQSGAEQVKPGASVKMSCKASGYTFTTYPIEWMKQNHGESLDWIGNIHPYNDDTEYNEKFKGKATLTVEKSSNTVFLELSRLTSDDSAVYYCVRGDYYNSRYWYFDVWGTGTTVTVSS
VL: DIVMTQSQKFMSTTVGDRVSITCKAGQNVRTAVAWYQQKPGQSPKLLIYSASTRYIGVPERFTGSGSGTDFTLTITNMQSEDLADYFCQQYSSFPLTFGTGTKLELKR
notes: Chimeric IgG1 kappa
B2: F1.120.15 (antibody, human IgG1, kappa, V domains shown)
VH: QVQLQQSGPELVKPGASVKISCKASGNAFSNSWMNWVKQRPGKGLEWIGRVYSEDGDTQYNGKFRDKATLTADRSTSTAYMQLSSLTSEDSAVYFCARWLIYYGTYGAMDYWGQGTSVTVSS
VL: DIQMTQTTSSLSASLGDRVTISCRASQDINNYLNWYHQKPDGTVKLLIYFTSRPYSGVPSRFSGSGSGTDYSLTISNLEQEDIATYFCQQGNTLPWTFGGGTKLEIKR
notes: Chimeric IgG1 kappa
B3: F1.172.13 (antibody, human IgG1, kappa, V domains shown)
VH: QVTLKESGPGILQSSQTLSLTCSFSGFSLSTSGMGVSWIRQPSGKGLEWLAHIYWDDDKRYNPSLKSRLTISKDTSRNQVFLKITSVDTADTATYYCARAPPPNWDEYYFDYWGQGTTLTVSS
VL: DIQMTQSPASLSASVGETVTITCRASGNIHNSLAWYQQKQGKSPQLLVHNAKTLADGVPSRFSGSGSGTQYSLKINSLQPEDFGSYYCQHFWSTPPFGGGTKLEIKR
notes: Chimeric IgG1 kappa
B4: F2.205.9 (antibody, human IgG1, lambda, V domains shown)
VH: QVTLKESGPGILQPSQTLSLTCSFSGFSLSTSGMGVGWIRQPSGKGLEWLAHIWWDDDEYYNPALKSRLTISKDTSKNQVFLKIANVDTADTATYYCARISIPYGYYDWFFDVWGTGTTVTVSA
VL: QAVVTQESALTTSPGETVTLTCRSSTGAVTTRNYANWVQEKPDHLFTGLIGGTNNRAPGVPARFSGSLIGDKAALTITGAQTEDEAIYFCALWYSNHFIFGSGTKVTVLG
notes: Chimeric IgG1 lambda
B5: F2.99.1 (antibody, human IgG1, lambda, V domains shown)
VH: QVTLKESGPGILQPSQTLSLTCSFSGFSLSTFPMGVGWIRQPSGKGLEWLAHIWWDDDEYYNPVLKSRLTISKDTSKKQVYLRIANVDTVDTATYYCTRANWDRWYFDVWGTGTTVTVSS
VL: QLVLTQSSSASFSLGASAKLTCTLSRQHSAYTIEWYQQQPLKPPKYVMEVKKDGSHSTGDGIPDRFSGSSSGADRYLSISNIQPEDEAIYICGVGDTIKEHFVFGGGTKVTVLG
notes: Chimeric IgG1 lambda
B6: F2.173.9 (antibody, human IgG1, lambda, V domains shown)
VH: EVQLVESGGDLVKPGESLKLSCEASGFTFSNYAMSWVRQTPDRRLEWVATISSIGSFTYYSDSVKGRFTISRDNVKSTLHLQMNNLKSGDTAIYFCARLGVYFDSWGQGTTLTVSS
VL: QLVLTQSSSASFSLGASAKLTCTLSSQHSTYTIEWYQQQPHKPPKFVMEIKKDGSHYTGDGIPDRFSGSSSGADRYLSISNIQPEDETIYICGVSDMIKDQFVYVFGGGTKVTVLG
notes: Chimeric IgG1 lambda
B7: HA22-hIgG1 (antibody, V domains shown)
VH: EVQLVESGGGLVKPGGSLKLSCAASGFAFSIYDMSWVRQTPEKCLEWVAYISSGGGTTYYPDTVKGRFTISRDNAKNTLYLQMSSLKSEDTAMYYCARHSGYGTHWGVLFAYWGQGTLVTVSA
VL: B2 VL with N30S, H37Q, F50Y, R53I, P54L, Y55H, I83F, G100C

What was measured:
[1] = target: T1, human CD22-ECD-His protein; assay: SPR (Biacore), antibody captured on Protein A chip, CD22-ECD-His in solution
Procedure: Sample buffer and running buffer were HBS-EP+(10 mM HEPES, 150 mM NaCl, 3 mM EDTA, 0.05% surfactant P20) (GE Healthcare; BR-1006-69). The flow-through cell was set to 25° C. The sample block was set to 16° C. Both were pretreated with the running buffer. In each cycle, the antibody to be tested was first captured with a Protein A chip, then a single concentration of CD22 antigen protein was injected. The binding and dissociation process of the antibody and the antigen protein was recorded, and finally Glycine pH 1.5 (GE Healthcare; BR-1003-54) was used to complete chip regeneration. Binding was measured by injecting different concentrations of recombinant human CD22-ECD His protein in solution for 240 s with a flow rate of 30 μL/min. The concentration started from 200 nM (see the detailed results for the actual concentration in the test) and was diluted at 1:1, making a total of 5 concentrations. The dissociation phase was monitored for up to 600 s and was triggered by switching from sample solution to running buffer. The surface was regenerated by washing with a 10 mM of glycine solution (pH 1.5) for 30 s at a flow rate of 30 μL/min. Bulk refractive index difference was corrected by subtracting the response obtained from the goat anti-human Fc surface. Blank injection was also subtracted (=double reference). For calculation of apparent KD and other kinetic parameters, Langmuir 1:1 model was used.

human CD22 domain5-7-His = target: T2, human CD22 domain5-7-His; assay: ELISA, plate coated with human CD22 domain5-7-His
[2] = target: T3, rhesus monkey CD22-ECD-His protein; assay: SPR (Biacore), antibody captured on Protein A chip, rhesus CD22 in solution

| Binder | Kd [1] [nM] | koff [1] [s⁻¹] | kon [1] [M⁻¹ s⁻¹] | binding result (human CD22 domain5-7-His) | Kd [2] [nM] | koff [2] [s⁻¹] | kon [2] [M⁻¹ s⁻¹] |
| --- | --- | --- | --- | --- | --- | --- | --- |
| B1 | 1.44 | 0.000607 | 422000 | no binding | 3.48 | 0.00127 | 366000 |
| B2 | 19.5 | 0.000232 | 11900 | no binding | 15.1 | 0.000637 | 42100 |
| B3 | 17.6 | 0.00539 | 306000 | no binding | 6.9 | 0.00138 | 200000 |
| B4 | 1.57 | 0.000386 | 246000 | no binding | 10.3 | 0.0014 | 135000 |
| B5 | 1.55 | 0.000162 | 105000 | no binding | 14.5 | 0.000545 | 37600 |
| B6 | 4.74 | 0.000232 | 49000 | no binding | 46.7 | 0.000883 | 18900 |
| B7 | 1.33 | 8.96e-05 | 67400 | no binding | 3.41 | 0.000234 | 68600 |
